Laboratory results from patent US11285197B2, “Mesothelin vaccines and model systems” (priority 2002, dated 2022).

Target: T1, HLA-A2 (Homo sapiens, UniProt P04439, D140Y/D185E/D98H/E176V/E277Q/G131W/G231S/I119V/I121R/I166T/I218V/L300P/L318F/N151K/N90K/P208A/P217A/Q86G/Q94H/R138H/R169H/T345S)
T1 construct: pulsing TAP deficient T2 cells that expressed the corresponding HLA class I molecule (T2-A2, T2-A3, or T2-A24 cells); endogenous in cells; host or cells: human T2 cells (TAP-deficient B/T lymphoblast hybrid), called T2-A2
Test: T2 peptide/MHC binding assay, T2-A2 cells, W6/32 staining, flow cytometry
Conditions: T2-A2 cells pulsed with peptide, HLA class I antibody W6/32, flow cytometry

In the case of EIDESLIFY (listed as Homo sapiens), the “detection of HLA-A2 on the cell surface of peptide-pulsed T2-A2 cells” value is reported as “do not stain”.
